These results are taken from US20240116985A1, “STAPLED PEPTIDES AND METHODS THEREOF” (priority 2020, published 2024).

The target of assay [1] is full-length beta-Catenin (Uniprot ID P35222) (Homo sapiens (Human)) (UniProt P35222). Nature of the assay: fluorescence polarization competition; peptide titrated against 10 nM full-length beta-catenin + 10 nM 5FAM-TCF4(10-53).
Assay [2] shares this target. The assay is described as follows: fluorescence polarization competition; full-length beta-catenin, competitor 5FAM-TCF4(10-53) probe. (In general: Polarisation of emitted light reports the rotation of a fluorescent probe.)
Target sequence in this assay (P35222 whole entry): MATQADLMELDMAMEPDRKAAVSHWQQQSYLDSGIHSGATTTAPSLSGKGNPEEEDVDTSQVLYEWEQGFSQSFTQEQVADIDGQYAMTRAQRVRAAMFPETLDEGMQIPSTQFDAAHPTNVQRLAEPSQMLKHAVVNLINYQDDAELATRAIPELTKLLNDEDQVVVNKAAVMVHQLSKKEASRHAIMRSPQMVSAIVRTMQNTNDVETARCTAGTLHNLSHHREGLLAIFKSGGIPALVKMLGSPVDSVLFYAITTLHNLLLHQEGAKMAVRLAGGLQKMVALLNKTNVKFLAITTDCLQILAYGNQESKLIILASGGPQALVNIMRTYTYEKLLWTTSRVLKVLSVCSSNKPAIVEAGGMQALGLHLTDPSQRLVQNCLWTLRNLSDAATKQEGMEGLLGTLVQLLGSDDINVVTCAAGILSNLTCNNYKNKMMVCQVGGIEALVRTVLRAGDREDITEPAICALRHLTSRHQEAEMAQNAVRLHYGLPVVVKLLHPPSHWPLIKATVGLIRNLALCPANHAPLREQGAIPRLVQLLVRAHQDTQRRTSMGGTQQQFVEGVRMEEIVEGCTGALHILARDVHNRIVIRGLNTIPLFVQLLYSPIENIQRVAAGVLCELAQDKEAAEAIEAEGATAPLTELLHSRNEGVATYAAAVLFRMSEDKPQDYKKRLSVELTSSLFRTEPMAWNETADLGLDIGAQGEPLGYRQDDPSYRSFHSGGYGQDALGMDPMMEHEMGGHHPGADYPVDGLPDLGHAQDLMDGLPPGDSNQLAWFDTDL

Starred links: 1 amine or outer side, 2 acyl side, 3 side chain; linkers in the order of their positions; H or OH if unused. Positions of bridges follow the written chain, without caps; N, C: chain ends. Non-standard residues stand in square brackets, D forms with d. Primed or numbered codes have the meaning given here. *: point of attachment. PyrS2″ = (S)-3-amino-1-((pent-4-en-1-yloxy)carbonyl)pyrrolidine-3-carboxylic acid (stapling residue), C=CCCCOC(=O)N1CC[C@@](N[*:1])(C(=O)[*:2])C1; B5(4) = 2,2-bis(4-pentenyl)glycine = 2-amino-2-(pent-4-en-1-yl)hept-6-enoic acid (stitching residue), C=CCCCC(CCCC=C)(N[*:1])C(=O)[*:2]; B5(5) = 2,2-bis(4-pentenyl)glycine, 2-amino-2-(pent-4-en-1-yl)hept-6-enoic acid (stitching residue), C=CCCCC(CCCC=C)(N[*:1])C(=O)[*:2]; PyrS2 = (S)-3-amino-1-((pent-4-en-1-yloxy)carbonyl)pyrrolidine-3-carboxylic acid, C=CCCCOC(=O)N1CC[C@@](N[*:1])(C(=O)[*:2])C1; PyrS1 = (S)-3-amino-1-((but-3-en-1-yloxy)carbonyl)pyrrolidine-3-carboxylic acid, C=CCCOC(=O)N1CC[C@@](N[*:1])(C(=O)[*:2])C1; B5(25) = 2-amino-2-(pent-4-en-1-yl)hept-6-enoic acid (stitching residue), C=CCCCC(CCCC=C)(N[*:1])C(=O)[*:2]; MorphAsn = (S)-2-amino-4-morpholino-4-oxobutanoic acid, O=C(C[C@H](N[*:1])C(=O)[*:2])N1CCOCC1; B5(3) = 2,2-bis(4-pentenyl)glycine (stitching residue), C=CCCCC(CCCC=C)(N[*:1])C(=O)[*:2]; B6 = 2-amino-2-(hex-5-en-1-yl)oct-7-enoic acid, C=CCCCCC(CCCCC=C)(N[*:1])C(=O)[*:2]; Phe(3-CF3) = N[C@@H](Cc1cccc(C(F)(F)F)c1)C(=O)O; Phe(3-COOH) = N[C@@H](Cc1cccc(C(=O)O)c1)C(=O)O; 2F3MeF = Cc1cccc(C[C@H](N[*:1])C(=O)[*:2])c1F; Phe(2-CF3) = N[C@@H](Cc1ccccc1C(F)(F)F)C(=O)O; Phe(3-Cl) = N[C@@H](Cc1cccc(Cl)c1)C(=O)O; Phe(4-Cl) = N[C@@H](Cc1ccc(Cl)cc1)C(=O)O; Phe(2-Cl) = N[C@@H](Cc1ccccc1Cl)C(=O)O; Bta = N[C@@H](Cc1csc2ccccc12)C(=O)O; αAllylPro = C=CC[C@@]1(C(=O)O)CCCN1; Morpholinoacetyl = O=C(CN1CCOCC1)*; tBuAla = CC(C)(C)C[C@H](N)C(=O)O; 3Thi = N[C@@H](Cc1ccsc1)C(=O)O; Cha = N[C@@H](CC1CCCCC1)C(=O)O; αMeP = C[C@@]1(C(=O)O)CCCN1; Leu(ol) = CC(C)C[C@H](N)CO; Me2Npr = not defined here; Alaol = C[C@@H](CO)N*; Aib = CC(C)(N)C(=O)O; Ms = CS(=O)(=O)*

B1: I-2516 (peptide)
peptide: Ac-[αAllylPro]D[tBuAla][B6]D[Phe(3-COOH)]QAFL[PyrS2][Phe(2-CF3)][Bta]A-NH2
modifications: staple 1-4, 4-11; also: one of three HPLC isomer compositions
As to B1, the IC50 in assay [1] stood at 209 nM.

B2: I-2226 (peptide)
peptide: Ac-[αAllylPro]D[tBuAla][B5(3)]D[Phe(3-COOH)]AAFL[PyrS2″][2F3MeF][Phe(3-Cl)]S-NH2
modifications: staple 1-4, 4-11
As to B2, the IC50 in assay [1] worked out at 97 nM.

B3: I-2519 (peptide)
peptide: Ac-[αAllylPro]D[tBuAla][B6]D[Phe(3-COOH)]QAFL[PyrS1][Phe(2-CF3)][Bta]A-NH2
modifications: staple 1-4, 4-11; not fully specified; printed as Ac-PL3-Asp-Npg-B6-Asp-3COOHF-Gln-Ala-Phe-Leu-PyrS1-2F3MeF-BztA-Ala-NH2
B3: the IC50 in assay [1] was 94 nM.

B4: I-2230 (peptide)
peptide: Ac-[αAllylPro]D[tBuAla][B5(3)]DDAAFQ[PyrS2″][3Thi][Bta]HK-NH2
modifications: staple 1-4, 4-11; also: later eluting staple isomer
For the molecule B4, the IC50 in assay [1] is 8 nM.

B5: I-1078 (peptide)
peptide: Ac-[αAllylPro]D[Cha][B5(4)]DEAAFL[PyrS2″][Phe(2-Cl)][Bta]Q-NH2
modifications: staple 1-4, 4-11; also: later-eluting staple isomer composition
For the molecule B5, the IC50 in assay [1] is 352 nM. Besides, the EC50 in assay [2] was 352 nM.

B6: I-2522 (peptide)
peptide: Ac-[αAllylPro]N[Cha][B5(4)]DQK(Ac)AFL[PyrS2]F[Bta][MorphAsn]-NH2
modifications: staple 1-4, 4-11
Regarding B6, the IC50 in assay [1] was determined as 219 nM.

B7: I-1081 (peptide)
peptide: Ac-[αAllylPro]D[tBuAla][B5(3)]DDAAFN[PyrS2″][Phe(2-Cl)][Bta]-Alaol
modifications: staple 1-4, 4-11
With B7, the IC50 in assay [1] was found to be 5 nM. In addition, the EC50 in assay [2] is 5 nM.

B8: I-2231 (peptide)
peptide: Ac-[αMeP]D[tBuAla][Aib]DDAAFQ[Aib][3Thi][Bta]HK-NH2
SMILES: CC(=O)N1CCC[C@@]1(C)C(=O)N[C@@H](CC(=O)O)C(=O)N[C@@H](CC(C)(C)C)C(=O)NC(C)(C)C(=O)N[C@@H](CC(=O)O)C(=O)N[C@@H](CC(=O)O)C(=O)N[C@@H](C)C(=O)N[C@@H](C)C(=O)N[C@@H](Cc1ccccc1)C(=O)N[C@@H](CCC(N)=O)C(=O)NC(C)(C)C(=O)N[C@@H](Cc1ccsc1)C(=O)N[C@@H](Cc1csc2ccccc12)C(=O)N[C@@H](Cc1c[nH]cn1)C(=O)N[C@@H](CCCCN)C(N)=O
As for B8, the IC50 in assay [1] was 5190 nM.

B9: I-2523 (peptide)
peptide: Ac-[αAllylPro]N[Cha][B5(4)]DQKAFL[PyrS2]F[Bta][MorphAsn]-NH2
modifications: staple 1-4, 4-11; not fully specified (residue 7); printed as Ac-PL3-Asn-Cha-B5-Asp-Gln-[Phc]Lys-Ala-Phe-Leu-PyrS2-Phe-BztA-MorphAsn-NH2
B9: the IC50 in assay [1] was determined as 1730 nM.

B10: I-2223 (peptide)
peptide: Ac-[αAllylPro]D[tBuAla][B5(3)]D[Phe(3-COOH)]QAFL[PyrS2″][2F3MeF][Phe(4-Cl)]A-NH2
modifications: staple 1-4, 4-11
For the molecule B10, the IC50 in assay [1] amounted to 50 nM.

B11: I-2528 (peptide)
peptide: Ac-[αAllylPro]N[Cha][B5(25)]DQK(Me2Npr)AFL[PyrS2]F[Bta][MorphAsn]-NH2
modifications: staple 1-4, 4-11; reading uncertain; also: printed as Ac-PL3-Asn-Cha-B5-Asp-Gln-[Me2Npr]Lys-Ala-Phe-Leu-PyrS2-Phe-BztA-MorphAsn-NH2
Turning to B11, the IC50 in assay [1] worked out at 610 nM.

B12: I-2527 (peptide)
peptide: Ac-[αAllylPro]N[Cha][B5(4)]DQK(Morpholinoacetyl)AFL[PyrS2]F[Bta][MorphAsn]-NH2
modifications: staple 1-4, 4-11
As to B12, the IC50 in assay [1] came out at 263 nM.

B13: I-2229 (peptide)
peptide: Ac-[αAllylPro]D[tBuAla][B5(3)]DDAAFQ[PyrS2″][3Thi][Bta]HK-NH2
modifications: staple 1-4, 4-11; also: earlier eluting staple isomer
For the molecule B13, in assay [1], the concentration for half-maximal inhibition (IC50) amounted to 6 nM.

B14: I-2515 (peptide)
peptide: Ac-[αAllylPro]D[tBuAla][B6]D[Phe(3-COOH)]QAFL[PyrS2][Phe(2-CF3)][Bta]A-NH2
modifications: staple 1-4, 4-11
As for B14, the IC50 in assay [1] turned out to be 1610 nM.

B15: I-2524 (peptide)
peptide: Ac-[αAllylPro]N[Cha][B5(25)]DQK(Ms)AFL[PyrS2]F[Bta][MorphAsn]-NH2
modifications: staple 1-4, 4-11
Consider B15, for which the IC50 in assay [1] was determined as 609 nM.

B16: I-1074 (peptide)
peptide: Ac-[αAllylPro]D[tBuAla][B5(3)]DEAAFL[PyrS2″]F[Bta]Q-NH2
modifications: staple 1-4, 4-11; also: staple stereoisomer: later eluting HPLC peak
With B16, in assay [1], the IC50 was 498 nM. In addition, in assay [2], the EC50 came to 498 nM.

B17: I-2525 (peptide)
peptide: Ac-[αAllylPro]N[Cha][B5(25)]DQK(CF3CO)AFL[PyrS2]F[Bta][MorphAsn]-NH2
modifications: staple 1-4, 4-11
Consider B17, for which, in assay [1], the IC50 amounted to 4290 nM.

B18: I-2520 (peptide)
peptide: Ac-[αAllylPro]D[tBuAla][B5(4)]DXQAFL[PyrS2][Phe(2-CF3)][Bta]A-NH2
modifications: staple 1-4, 4-11; not fully specified (residue 6); printed as Ac-PL3-Asp-Npg-B5-Asp-[CH2CChCO2H]TriAzDap-Gln-Ala-Phe-Leu-PyrS2-2F3MeF-BztA-Ala-NH2
As to B18, the IC50 in assay [1] was 27 nM.

B19: I-2224 (peptide)
peptide: Ac-[αAllylPro]D[tBuAla][B5(3)]D[Phe(3-COOH)]AAFL[PyrS2″][3Thi][Phe(3-Cl)]Q-NH2
modifications: staple 1-4, 4-11
Consider B19, for which the IC50 in assay [1] is 14 nM.

B20: I-1080 (peptide)
peptide: Ac-[αAllylPro]D[tBuAla][B5(4)]DDAAFN[PyrS2″][Phe(2-Cl)][Bta][Leu(ol)]
modifications: staple 1-4, 4-11
On to B20, for which the concentration for half-maximal inhibition (IC50) in assay [1] amounted to 6 nM. The molecule further had a 50% effective concentration (EC50) in assay [2] of 6 nM.

B21: I-2510 (peptide)
peptide: Ac-[αAllylPro]D[tBuAla][B6]D[Phe(3-COOH)]QAFL[PyrS1][Phe(2-CF3)][Bta]A-NH2
modifications: staple 1-4, 4-11
With B21, the IC50 in assay [1] turned out to be 24 nM.

B22: I-2222 (peptide)
peptide: Ac-[αAllylPro]D[tBuAla][B5(3)]D[Phe(3-COOH)]AAFL[PyrS2″][2F3MeF][Phe(4-Cl)]S-NH2
modifications: staple 1-4, 4-11
Turning to B22, the IC50 in assay [1] turned out to be 84 nM.

B23: I-2517 (peptide)
peptide: Ac-[αAllylPro]D[tBuAla][B6]D[Phe(3-COOH)]QAFL[PyrS2][Phe(2-CF3)][Bta]A-NH2
modifications: staple 1-4, 4-11
Turning to B23, the IC50 in assay [1] came to 61 nM.

B24: I-1268: Ac-PL3-Asp-Npg-B5-Asp-Thr-Ala-Ala-3F3MeF-Thr-PyrS2-Phe-BztA-Ser-NH2 (peptide)
peptide: Ac-[αAllylPro]D[tBuAla][B5(5)]DTAA[Phe(3-CF3)]T[PyrS2″]F[Bta]S-NH2
modifications: staple 1-4, 4-11
Take B24: the IC50 in assay [1] was 198 nM.

B25: I-2175 (peptide)
peptide: Ac-[αAllylPro]D[tBuAla][B5(5)]DDAAFN[PyrS2″][3Thi]WQ-NH2
modifications: staple 1-4, 4-11
As to B25, the IC50 in assay [1] was found to be 19 nM.

B26: I-2228 (peptide)
peptide: Ac-[αMeP]D[tBuAla][Aib]DDAAFQ[Aib][3Thi][Bta]H-NH2
SMILES: CC(=O)N1CCC[C@@]1(C)C(=O)N[C@@H](CC(=O)O)C(=O)N[C@@H](CC(C)(C)C)C(=O)NC(C)(C)C(=O)N[C@@H](CC(=O)O)C(=O)N[C@@H](CC(=O)O)C(=O)N[C@@H](C)C(=O)N[C@@H](C)C(=O)N[C@@H](Cc1ccccc1)C(=O)N[C@@H](CCC(N)=O)C(=O)NC(C)(C)C(=O)N[C@@H](Cc1ccsc1)C(=O)N[C@@H](Cc1csc2ccccc12)C(=O)N[C@@H](Cc1c[nH]cn1)C(N)=O
Take B26: the IC50 in assay [1] is 2140 nM.

B27: I-1077 (peptide)
peptide: Ac-[αAllylPro]D[Cha][B5(4)]DEAAFL[PyrS2″][Phe(2-Cl)][Bta]Q-NH2
modifications: staple 1-4, 4-11; also: earlier-eluting staple isomer composition
For the molecule B27, the IC50 in assay [1] stood at 324 nM. Further, the EC50 in assay [2] came out at 324 nM.

B28: I-2227 (peptide)
peptide: Ac-[αAllylPro]D[tBuAla][B5(3)]D[Phe(3-COOH)]QAFL[PyrS2″][2F3MeF][Phe(3-Cl)]A-NH2
modifications: staple 1-4, 4-11
Take B28: in assay [1], the IC50 is 47 nM.

B29: I-1073 (peptide)
peptide: Ac-[αAllylPro]D[tBuAla][B5(3)]DEAAFL[PyrS2″]F[Bta]Q-NH2
modifications: staple 1-4, 4-11; not fully specified; printed as Ac-PL3-Asp-Npg-B5-Asp-Glu-Ala-Ala-Phe-Leu-PyrS2-Phe-BztA-Gln-NH2
On to B29, for which, in assay [1], the IC50 worked out at 409 nM. The molecule further returned an EC50 in assay [2] of 409 nM.

B30: I-1071 (peptide)
peptide: Ac-[αAllylPro]D[tBuAla][B5(3)]DEAAFL[PyrS2″][Phe(2-Cl)][Bta]T-NH2
modifications: staple 1-4, 4-11; also: staple stereoisomer: later eluting HPLC peak
For B30, the IC50 in assay [1] is 1260 nM. This molecule returned an EC50 in assay [2] of 1260 nM.

The term IC50 denotes the concentration that inhibits the measured activity by half. In general, EC50 refers to the concentration at which the effect is half-maximal. Read a high EC50 as lower potency in that assay.
